Laboratory results as given in patent US20200055920A1 (published 2020).
Blank lines part the entries; values can stand above or below the binder they belong to.

Tests used:
Experiment in all cases: Biacore SPR; receptor-Fc captured by anti-Fc antibody, ligand injected
BMP7 = target: T1, BMP7 (UniProt P18075 293-431)
T1 construct: also called osteogenic protein-1; OP-1
T1 sequence (looked up): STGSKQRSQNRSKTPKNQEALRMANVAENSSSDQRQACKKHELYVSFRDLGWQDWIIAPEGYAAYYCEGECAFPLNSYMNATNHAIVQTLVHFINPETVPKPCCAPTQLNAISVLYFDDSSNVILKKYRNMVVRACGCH
Procedure: (§1) A Biacore™-based binding assay was used to compare ligand binding selectivity of the single-arm BMPRII-Fc heterodimeric complex described above with that of an BMPRII-Fc homodimeric complex. The single-arm BMPRII-Fc and homodimeric BMPRII-Fc were independently captured onto the system using an anti-Fc antibody. Ligands were injected and allowed to flow over the captured receptor protein.

GDF7 = target: T2, GDF7 (UniProt Q7Z4P5 322-450, limits assumed)
T2 construct: also called BMP12
T2 sequence (looked up): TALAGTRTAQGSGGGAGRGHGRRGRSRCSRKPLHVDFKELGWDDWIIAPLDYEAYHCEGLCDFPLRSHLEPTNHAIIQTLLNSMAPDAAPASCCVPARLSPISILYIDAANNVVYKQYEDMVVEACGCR
Procedure: as §1

BMP15 = target: T3, BMP15 (UniProt O95972 268-392)
T3 construct: also called GDF9b
T3 sequence (looked up): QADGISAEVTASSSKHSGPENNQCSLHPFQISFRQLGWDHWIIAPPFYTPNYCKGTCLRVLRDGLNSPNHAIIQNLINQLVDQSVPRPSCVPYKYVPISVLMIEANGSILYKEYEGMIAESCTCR
Procedure: as §1

BMP5 = target: T4, BMP5 (UniProt P22003 317-454, limits assumed)
T4 sequence (looked up): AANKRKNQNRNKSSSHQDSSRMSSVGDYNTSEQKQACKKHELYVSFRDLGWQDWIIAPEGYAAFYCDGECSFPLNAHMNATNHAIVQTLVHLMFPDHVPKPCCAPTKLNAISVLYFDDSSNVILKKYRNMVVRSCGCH
Procedure: as §1

BMP6 = target: T5, BMP6 (UniProt P22004 382-513, limits assumed)
T5 sequence (looked up): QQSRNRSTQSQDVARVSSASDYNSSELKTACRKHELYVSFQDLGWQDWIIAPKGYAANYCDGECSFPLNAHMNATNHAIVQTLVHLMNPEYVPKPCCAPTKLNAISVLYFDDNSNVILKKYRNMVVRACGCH
Procedure: as §1

BMP2 = BMP2 (UniProt P12643 283-396)
Sequence of BMP2 (P12643 283-396 limits assumed): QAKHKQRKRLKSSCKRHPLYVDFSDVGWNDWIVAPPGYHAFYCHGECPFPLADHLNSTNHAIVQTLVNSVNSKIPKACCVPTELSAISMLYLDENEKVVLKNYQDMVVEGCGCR
Procedure: as §1

BMP10 = target: T6, BMP10 (UniProt O95393 317-424)
T6 sequence (looked up): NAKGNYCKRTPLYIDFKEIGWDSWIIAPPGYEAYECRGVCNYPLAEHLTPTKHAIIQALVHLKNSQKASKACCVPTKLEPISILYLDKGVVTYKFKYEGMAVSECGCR
Procedure: as §1

BMP4 = target: T7, BMP4 (UniProt P12644 293-408)
T7 sequence (looked up): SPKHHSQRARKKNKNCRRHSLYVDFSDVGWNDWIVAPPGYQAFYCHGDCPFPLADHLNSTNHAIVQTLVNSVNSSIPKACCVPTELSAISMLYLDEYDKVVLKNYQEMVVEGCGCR
Procedure: as §1

TGFβ3 = target: T8, TGFβ3 (UniProt P10600 301-412)
T8 construct: also called TGF-beta3
T8 sequence (looked up): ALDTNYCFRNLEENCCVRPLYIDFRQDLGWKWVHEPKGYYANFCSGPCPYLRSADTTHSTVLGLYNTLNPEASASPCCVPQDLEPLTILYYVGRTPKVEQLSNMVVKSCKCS
Procedure: (§2) Ligands were injected and allowed to flow over the captured receptor protein.

TGFβ1 = target: T9, TGFβ1 (UniProt P01137 279-390)
T9 construct: also called TGF-beta1
T9 sequence (P01137 279-390 limits assumed): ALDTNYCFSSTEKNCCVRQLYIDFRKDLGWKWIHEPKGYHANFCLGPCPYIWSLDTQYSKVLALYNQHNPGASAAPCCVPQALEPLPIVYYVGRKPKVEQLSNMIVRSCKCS
Procedure: as §2

TGFβ2 = target: T10, TGFβ2 (UniProt P61812 303-414)
T10 construct: also called TGF-beta2
T10 sequence (looked up): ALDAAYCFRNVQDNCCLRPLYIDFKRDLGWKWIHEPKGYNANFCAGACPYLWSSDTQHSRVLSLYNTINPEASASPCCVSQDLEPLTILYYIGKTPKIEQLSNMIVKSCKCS
Procedure: as §2

binding result (BMP7): no binding
Kd (GDF7): > 190 nM
Kd (BMP15): 0.94 nM
koff (BMP15): 0.067 s⁻¹
kon (BMP15): 7.1e+07 M⁻¹ s⁻¹
Kd (BMP5): 36 nM
koff (BMP5): 0.015 s⁻¹
kon (BMP5): 410000 M⁻¹ s⁻¹
binding result (BMP6): no binding
binding result (BMP2): no binding
Kd (BMP10): 0.43 nM
koff (BMP10): 0.0091 s⁻¹
kon (BMP10): 2.1e+07 M⁻¹ s⁻¹
binding result (BMP4): no binding
B1: single-arm BMPRII-Fc heterodimeric complex (Fc fusion)
chain 1: SQNQERLCAFKDPYQQDLGIGESRISHENGTILCSKGSTCYGLWEKSKGDINLVKQGCWSHIGDPQECHYEECVVTTTPPSIQNGTYRFCCCSTDLCNVNFTENFPPPDTTPLSPPHSFNRDETGGGTHTCPPCPAPELLGGPSVFLFPPKPKDTLMISRTPEVTCVVVDVSHEDPEVKFNWYVDGVEVHNAKTKPREEQYNSTYRVVSVLTVLHQDWLNGKEYKCKVSNKALPAPIEKTISKAKGQPREPQVYTLPPSRKEMTKNQVSLTCLVKGFYPSDIAVEWESNGQPENNYKTTPPVLKSDGSFFLYSKLTVDKSRWQQGNVFSCSVMHEALHNHYTQKSLSLSPGK
chain 2: SNTKVDKRVTGGGTHTCPPCPAPELLGGPSVFLFPPKPKDTLMISRTPEVTCVVVDVSHEDPEVKFNWYVDGVEVHNAKTKPREEQYNSTYRVVSVLTVLHQDWLNGKEYKCKVSNKALPAPIEKTISKAKGQPREPQVYTLPPSREEMTKNQVSLTCLVKGFYPSDIAVEWESNGQPENNYDTTPPVLDSDGSFFLYSDLTVDKSRWQQGNVFSCSVMHEALHNHYTQKSLSLSPGK
notes: also called BMPRII-Fc:Fc heterodimer

Kd (TGFβ3): 0.073 nM
koff (TGFβ3): 0.0099 s⁻¹
kon (TGFβ3): 1.4e+08 M⁻¹ s⁻¹
Kd (TGFβ1): 0.031 nM
koff (TGFβ1): 0.0047 s⁻¹
kon (TGFβ1): 1.5e+08 M⁻¹ s⁻¹
Kd (TGFβ2): > 61 nM
B2: single-arm TGFβRII-Fc heterodimeric complex (Fc fusion)
chain 1: TIPPHVQKSVNNDMIVTDNNGAVKFPQLCKFCDVRFSTCDNQKSCMSNCSITSICEKPQEVCVAVWRKNDENITLETVCHDPKLPYHDFILEDAASPKCIMKEKKKPGETFFMCSCSSDECNDNIIFSEEYNTSNPDTGGGTHTCPPCPAPELLGGPSVFLFPPKPKDTLMISRTPEVTCVVVDVSHEDPEVKFNWYVDGVEVHNAKTKPREEQYNSTYRVVSVLTVLHQDWLNGKEYKCKVSNKALPAPIEKTISKAKGQPREPQVYTLPPSRKEMTKNQVSLTCLVKGFYPSDIAVEWESNGQPENNYKTTPPVLKSDGSFFLYSKLTVDKSRWQQGNVFSCSVMHEALHNHYTQKSLSLSPGK
chain 2: SNTKVDKRVTGGGTHTCPPCPAPELLGGPSVFLFPPKPKDTLMISRTPEVTCVVVDVSHEDPEVKFNWYVDGVEVHNAKTKPREEQYNSTYRVVSVLTVLHQDWLNGKEYKCKVSNKALPAPIEKTISKAKGQPREPQVYTLPPSREEMTKNQVSLTCLVKGFYPSDIAVEWESNGQPENNYDTTPPVLDSDGSFFLYSDLTVDKSRWQQGNVFSCSVMHEALHNHYTQKSLSLSPGK
notes: also called TGFβRII-Fc:Fc heterodimer
